Common to all, as to conditions: source organism: Rickettsia akari str. Hartford
One test addresses HLA-C*15:02. In words: IEDB peptide-MHC binding, purified MHC/direct/fluorescence; filed as Kd, often an IC50 or EC50 that approximates it; ≥ and ≤ were set here for values at or beyond the usual limits of such assays.
The target in another test is HLA-B*39:01. In words: IEDB peptide-MHC binding, purified MHC/competitive/fluorescence; filed as Kd, often an IC50 or EC50 that approximates it; ≥ and ≤ were set here for values at or beyond the usual limits of such assays.
A further test addresses HLA-B*08:01. The test is described as above.
A further test addresses HLA-A*02:16. Described as above.
In the next test the target is HLA-B*15:01. Described as above.
For the next test, the target named is HLA-B*40:01. The description is as above.
A further test addresses HLA-B*27:05. The description is as above.
Another test addresses HLA-A*29:02. The description is as above.
Another test addresses HLA-A*02:01. The description is as above.
Another test concerns the target HLA-B*51:01. Described as above.

On to FTARIIIFS, for which the Kd (as a rule, the constant that tells how readily two partners part at equilibrium) is no less than 20 µM with HLA-C*15:02; no less than 20 µM with HLA-B*39:01; no less than 5 µM in the test with HLA-B*08:01; no less than 20 µM with HLA-A*02:16; no less than 20 µM with HLA-B*15:01; no less than 5 µM with HLA-B*40:01. Further, the Kd with HLA-B*27:05 is no less than 5 µM; in the test with HLA-A*29:02, no less than 20 µM; with HLA-A*02:01, no less than 20 µM; in the test with HLA-B*51:01, no less than 20 µM.

The values are drawn from the Immune Epitope Database (IEDB).
